This note sets out measurements from article doi:10.1101/2025.01.31.636011, “Discovery of a distinct BAM complex in the Bacteroidetes” (bioRxiv, 2025).

B1: PgBamG (PGN_1735) with a C-terminal 7His-tag (natural protein)
chain: CDDDLSPIGGSIQPPSDPVSARVDTLEFSVKTIPMGDIYNRTNYTLLGDLTDPEYGDLKADYIMQFKSPRNFKFKYPPKDGKIDSVKLSINYDSWAGDSTSIMKVSIYKINKAIPPSYYSTQELASLLDETQIIASQTFKAGNDSAFHRVRIPLPNEIGQKIYDLSVNNPSVFDTQESFYNNVLGGLYVTTTTGTGVVLSVYNTQMAIFYSYKVAADSTATASETFVNTSESYQVNHIKNSQISHLLQENDSLSCVKSPAGVMTQLTISKEQFTDAFTSNLSSSLAWQIGEAQFNISASKPSEGLMLSPPSYLLLLPQDSVRNFFEQEQTELMQPRTAFLSTIYNIKKREYRFSNISRLLMEHIKNNTEKTPEGKPYITKDLVLVLLPVKRQVAGASNSLYTSQLNNFMFPSGVKLQLGKKNKTARIGVYSMTYTDN
modifications: tri-acylated lipid anchor; O-glycosylation, 7 sites
notes: also called His-tagged BamG; source: P. gingivalis expressing C-terminally His-tagged BamG (homologous recombination), membranes solubilised in DDM; not shown: His7, C-terminal, kept
B2: BtBamI (Bt3612) (natural protein, UniProt Q8A1P7 20-196, looked up)
chain: CSETEEVGKYDNWRARNEAFIDSLANVYATASGRGGLERIEMLTAPGNYIYYKEMEPMTDHVVKAGNPKYTDYVKVYYKGTNILGEYFDGNFKGDNPVVDGKDPSEGDSPTTIFQVSGVITGWGEVLQRMEVGDRWKVYIPWDYAYGSSGTTGILGYSALVFDITLLDFANTEAELK
modifications: O-glycosylation (sites not given)
B3: BtBamF (Bt4367) (natural protein, UniProt Q89ZL0 23-431, looked up)
chain: QNNTNSPYTRYGYGDLSDQSFGNSKAMGGIAFGLRDGAQINPTNPASYTAIDSLTFLFEGGVSLQNMNISGGGLKLNAKNASFDYLAMQFRLAPWMAMSVGLLPYSNVGYTVSDSQTTDNGLAYSRSFTGDGGLHQMYVGAGVKVLKNLSVGVNASYFWGDITRTRGMFYPGTSSYDSYQRKMVTSISDYKLDFGAQYTQALNKKSSLTIGAVYSPKHKLNNDYTSIVIMGASSSSYGTEYKDVLDATFELPNTFGVGFTYNYDKRLTVGADYSLQQWSKTNFGVVTSDENVRQDFNETFTYCDRTKISVGAEYIPNLIGRSYFAHIKYRLGAYYTTPYYKIDGKKASREYGVTAGFGLPVPRSRSILSISGQFVRVKGLETNMVNENIFRVSIGLTFNERWFFKRRVE
modifications: O-glycosylation (glycan on Ser75)
B4: BtBamG (Bt4306) (natural protein, UniProt Q89ZS0 18-542, looked up)
chain: CDDNTGGLGLGMFPGNDQNIKGKLSTFDVTTESVKTGDIYAKTNIGYIGKFTDETFGTYQAGFLAQLNCPDGLTFPEPYKEVTDASGNVISATGRMVVDDKDPENKDVTFIKDGNQIIGNIRAVELYLWYDSYFGDSLTACRLSVYELGGNGKETLNLDNAYYTDINPEDFYDSQNILGTKAYTAVDLSVKDSIRNLSTYVPSVHIAFKEDIATRVGGNILTAARKAKNADKEFNSQLFREAFQGIYVKSDYGDGTVLYIDQPQMNVVYKCYATDSITGKKLQKKDGSGKDSTYYSYRVFATTREVIQANQLKNDPERIDALIKEDKNTYLKSPAGIFTEATLPISDIQNELTGDTLNAVKLTFTNYNQTGDKKFGMAIPSTVMLVRKKFQDSFFKDNKLSDGVSSYLTSHTSSTNQYVFSNITKLVNACIAEKEEAKKNAGSSWDETKWLQENPDWNKVVLIPVLVTYDSSNTTTGQANIIRIQHDLKPGYVRLKGGSLGKTNPDYKLKLEVISTDFGLTTKSN
modifications: tri-acylated lipid anchor on the N-terminal cysteine; O-glycosylation (glycan on Ser309)
notes: also called Bt4306/BamG

Details in all cases: both partners purified
Assay [1] addresses T1, PgBamA (PGN_0299) (Porphyromonas gingivalis (endogenous in …, UniProt B2RHH3 20-891)).
T1 construct: also called P. gingivalis BamA; source: endogenous, P. gingivalis expressing His-tagged BamG, membranes solubilised in DDM
T1 sequence: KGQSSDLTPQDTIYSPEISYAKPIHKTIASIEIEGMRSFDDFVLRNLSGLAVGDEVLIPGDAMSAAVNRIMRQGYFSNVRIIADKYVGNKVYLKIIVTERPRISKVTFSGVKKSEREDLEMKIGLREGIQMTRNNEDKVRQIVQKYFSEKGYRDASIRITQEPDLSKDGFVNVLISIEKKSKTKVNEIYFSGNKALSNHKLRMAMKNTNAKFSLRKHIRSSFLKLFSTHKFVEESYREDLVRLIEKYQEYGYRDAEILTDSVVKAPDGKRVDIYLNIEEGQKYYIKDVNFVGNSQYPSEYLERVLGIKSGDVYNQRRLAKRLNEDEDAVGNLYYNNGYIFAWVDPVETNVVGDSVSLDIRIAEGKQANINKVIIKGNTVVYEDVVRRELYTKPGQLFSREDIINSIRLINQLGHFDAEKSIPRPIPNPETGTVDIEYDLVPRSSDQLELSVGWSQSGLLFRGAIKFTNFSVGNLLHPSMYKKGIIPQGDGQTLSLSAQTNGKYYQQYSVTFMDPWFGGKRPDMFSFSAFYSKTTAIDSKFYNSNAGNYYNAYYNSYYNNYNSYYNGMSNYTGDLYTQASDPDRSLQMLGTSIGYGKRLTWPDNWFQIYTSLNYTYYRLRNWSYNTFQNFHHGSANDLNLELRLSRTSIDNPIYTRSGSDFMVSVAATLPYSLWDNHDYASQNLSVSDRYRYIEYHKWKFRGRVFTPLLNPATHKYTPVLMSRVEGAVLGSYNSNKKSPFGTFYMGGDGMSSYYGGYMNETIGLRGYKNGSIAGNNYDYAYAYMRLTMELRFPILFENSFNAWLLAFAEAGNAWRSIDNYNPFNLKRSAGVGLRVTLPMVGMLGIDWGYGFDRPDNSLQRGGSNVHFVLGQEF
As to the kind of experiment: cryo-EM structure; PgBAM complex co-purified through C-terminally His-tagged PgBamG from P. gingivalis membranes, in DDM, 4.9 mg/ml.

Assay [2] addresses B4. Briefly: cryo-EM structure; BtBAM complex co-purified through BtBamAhis from B. theta membranes, in DDM, 8 mg/ml; two 3D classes and a composite model.
Assay [3] concerns the target B4. Briefly: cryo-EM structure.
The target of assay [4] is T2, BtBamA (Bt3725) with an N-terminal His7 tag (Bacteroides thetaiotaomicron, UniProt Q8A1E1 20-885).
T2 construct: also called BtBamAhis; BamAhis
T2 sequence (looked up): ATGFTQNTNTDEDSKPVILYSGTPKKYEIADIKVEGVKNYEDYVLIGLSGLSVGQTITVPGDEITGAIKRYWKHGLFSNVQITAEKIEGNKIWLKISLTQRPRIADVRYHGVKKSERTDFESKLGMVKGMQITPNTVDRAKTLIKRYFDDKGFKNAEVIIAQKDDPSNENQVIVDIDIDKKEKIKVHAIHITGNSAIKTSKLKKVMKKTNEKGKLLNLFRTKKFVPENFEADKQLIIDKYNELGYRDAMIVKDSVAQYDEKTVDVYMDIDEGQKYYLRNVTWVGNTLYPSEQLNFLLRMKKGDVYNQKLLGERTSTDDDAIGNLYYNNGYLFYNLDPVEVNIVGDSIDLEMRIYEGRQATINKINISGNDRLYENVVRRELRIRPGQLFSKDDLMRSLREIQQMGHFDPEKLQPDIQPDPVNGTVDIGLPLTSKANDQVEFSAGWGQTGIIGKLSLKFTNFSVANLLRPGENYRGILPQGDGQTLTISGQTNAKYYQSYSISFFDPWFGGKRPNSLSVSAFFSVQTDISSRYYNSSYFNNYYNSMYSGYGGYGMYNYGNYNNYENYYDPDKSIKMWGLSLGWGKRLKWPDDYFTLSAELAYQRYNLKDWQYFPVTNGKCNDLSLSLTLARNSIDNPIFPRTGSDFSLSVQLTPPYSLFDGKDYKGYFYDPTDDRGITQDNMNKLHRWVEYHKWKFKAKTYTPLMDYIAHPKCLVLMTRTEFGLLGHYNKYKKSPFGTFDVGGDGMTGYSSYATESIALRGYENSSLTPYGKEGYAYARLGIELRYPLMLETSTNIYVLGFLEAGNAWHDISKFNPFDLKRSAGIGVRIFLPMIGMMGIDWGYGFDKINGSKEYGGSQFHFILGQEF
Briefly: cryo-EM structure; BtBAM complex co-purified through BtBamAhis from B. theta membranes, in DDM, 8 mg/ml; two 3D classes and a composite model.

Turning to B1, the binding result in assay [1] was “binds”.

With B2, the binding result in assay [2] is “binds”.

In the case of B3, the binding result in assay [3] is reported as “binds”.

Regarding B4, in assay [4], the binding result is given as “binds”.
